Source: article PMC9952396
Several values for one entry are separate records, joined by “and”; a condition that tells them apart may be missing. Identical values can stand only once.

Biological target: T1, Cys30 (UniProt position 49, FFSFFCPHCYQ)
Experiment: not given
Conditions: not stated (literature values for wild-type EcDsbA); cited from earlier work

Substance | pKa
Thiol:disulfide interchange protein DsbA (EcDsbA), wild type (Escherichia coli (K-12)) | 3.55 ± 0.02 and ~3.4

Biological target: T1, Cys30
Experiment: UV-vis
Conditions: room temperature, 200 mM KCl plus buffer salts, 10 mM dipotassium phosphate, 10 mM monopotassium phosphate, 10 mM sodium citrate, 10 mM Tris, 1 mM EDTA, Reduced DsbA (DTT-reduced, reagent removed), with oxidised DsbA (Cu(II)-phenanthroline-oxidised) as reference

Substance | pKa
EcDsbA E24A/K58A (Escherichia coli (K-12); E24A;K58A) | 3.5 ± 0.1
EcDsbA E24A (Escherichia coli (K-12); E24A) | 3.7 ± 0.1
Thiol:disulfide interchange protein DsbA (EcDsbA), wild type (Escherichia coli (K-12)) | 3.3 ± 0.1
EcDsbA E37A (Escherichia coli (K-12); E37A) | 3.3 ± 0.1
EcDsbA E24A/E37A/K58A (Escherichia coli (K-12); E24A;E37A;K58A) | 3.5 ± 0.1
EcDsbA K58A (Escherichia coli (K-12); K58A) | 3.4 ± 0.1
